Results reported in publication doi:10.1101/567099 (bioRxiv, 2019).
Numbering of substitutions follows the chain as printed. Names may count otherwise.

B1: MBP-TorsinA (human TorsinA residues 51-332, N-terminal MBP tag) (domain or fragment)
chain: GQKRSLSREALQKDLDDNLFGQHLAKKIILNAVFGFINNPKPKKPLTLSLHGWTGTGKNFVSKIIAENIYEGGLNSDYVHLFVATLHFPHASNITLYKDQLQLWIRGNVSACARSIFIFDEMDKMHAGLIDAIKPFLDYYDLVDGVSYQKAMFIFLSNAGAERITDVALDFWRSGKQREDIKLKDIEHALSVSVFNNKNSGFWHSSLIDRNLIDYFVPFLPLEYKHLKMCIRVEMQSRGYEIDEDIVSRVAEEMTFFPKEERVFSDKGCKTVFTKLDYYYDD
B2: TorsinA H140N (human, residues 51-332) (domain or fragment)
chain: B1 chain with H90N
B3: TorsinA K174A (human, residues 51-332) (domain or fragment)
chain: B1 chain with K124A
B4: TorsinA (human, residues 51-332) after cleavage of the MBP tag with 3C protease (domain or fragment)
chain: B1 chain
B5: TorsinA K174E (human, residues 51-332) (domain or fragment)
chain: B1 chain with K124E

What was measured:
SEC = target: the molecule itself; assay: SEC
[1] = target: the molecule itself; assay: negative-stain electron microscopy

Protein	binding result (SEC)	binding result [1]
B1	binds	–
B2	–	binds
B3	–	binds
B4	–	binds
B5	–	binds
